{"source": "paper PMC7064771", "about": "“Repurposed Drugs That Block the Gonococcus-Complement Receptor 3 Interaction Can Prevent and Cure Gonococcal Infection of Primary Human Cervical Epithelial Cells” (mBio, 2020)", "molecules": {"B1": {"name": "MS11 wild type: N. gonorrhoeae MS11 pilin modified with the Gal(α1-3)diNAcBac disaccharide glycan (protein, UniProt P02974 8-165, looked up)", "Type IV major pilin protein …": "FTLIELMIVIAIVGILAAVALPAYQDYTARAQVSEAILLAEGQKSAVTEYYLNHGKWPENNTSAGVASPPSDIKGKYVKEVEVKNGVVTATMLSSGVNNEIKGKKLSLWARRENGSVKWFCGQPVTRTDDDTVADAKDGKEIDTKHLPSTCRDNFDAK", "modifications": "Gal(α1-3)diNAcBac disaccharide glycan", "notes": "N. gonorrhoeae MS11 pilin modified with the Gal(α1-3)diNAcBac disaccharide glycan"}}, "key": {"[1]": {"biological_target": "T1, mouse rI-domain (Mus musculus, UniProt P05555)", "T1 construct": "Recombinant human and mouse I-domain proteins were made and purified as previously described; made in house", "T1 sequence (P05555 164-338)": "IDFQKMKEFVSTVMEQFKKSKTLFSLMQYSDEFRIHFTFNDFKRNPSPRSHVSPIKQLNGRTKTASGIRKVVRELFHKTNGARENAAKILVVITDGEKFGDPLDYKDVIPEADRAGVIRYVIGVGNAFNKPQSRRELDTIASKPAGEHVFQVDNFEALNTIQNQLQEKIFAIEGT", "experiment": "Surface plasmon resonance, immobilized mouse rI-domain", "details": "purified pilin 0.125-2 μM; NCDI = no concentration-dependent interaction (no binding of ≤2 μM)", "protocol": "(§1) SPR analyses were performed using a Biacore S200 system (GE Healthcare Life Sciences, Parramatta, NSW, Australia). Samples were analyzed at 25°C in phosphate-buffered saline (PBS) at a flow rate of 10 μl/min and by using single-cycle kinetics. Human rI-domain, mouse rI-domain, and human rCR3 were immobilized onto separate cells of a Series S CM5 sensor chip using an NHS capture kit (both from GE Healthcare Life Sciences) for purified pilin experiments. For experiments in which pilin-glycan-like structures were examined, human rI-domain and rCR3 were immobilized onto separate cells of a CM5 chip. A blank immobilization was used as a control/reference on all chips. MS11 wild-type and MS11 pglA pilin were serially diluted from 2 μM to 0.125 μM in PBS. Glycans (Dextra Laboratories, Reading, UK) (Table 2), resembling the gonococcal Gal(α1-3)diNAcBac pilin-linked glycan, were serially diluted from 2 μM to 0.0078 μM in PBS. Affinity data points were taken at 15 s after injection to avoid an artefactual signal resulting from bulk transport. SPR sensorgrams were analyzed using Biacore Evaluation software (GE Healthcare Life Sciences)."}, "[2]": {"biological_target": "T2, human rI-domain (Homo sapiens, UniProt P11215)", "T2 construct": "Recombinant human and mouse I-domain proteins were made and purified as previously described; made in house", "T2 sequence (P11215 150-328 limits assumed)": "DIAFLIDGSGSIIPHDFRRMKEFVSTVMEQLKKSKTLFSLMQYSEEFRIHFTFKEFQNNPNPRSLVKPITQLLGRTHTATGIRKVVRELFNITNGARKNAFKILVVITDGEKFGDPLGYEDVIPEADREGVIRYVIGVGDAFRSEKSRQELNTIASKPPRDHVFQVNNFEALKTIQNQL", "experiment": "Surface plasmon resonance, immobilized human rI-domain", "format": "binding", "details": "purified pilin 0.125-2 μM; NCDI = no concentration-dependent interaction (no binding of ≤2 μM); read-out: KD, rI-domain, Human", "protocol": "as §1"}}, "data": [{"molecule": "B1", "values": [{"measurement": "KD, rI-domain, Mouse", "setting": "[1]", "value": "NCDI"}, {"measurement": "Kd", "setting": "[2]", "value": "349 ± 45", "unit": "nM"}]}]}
